The supplement of paper PMC7125110
± gives the standard error. Fewer inactive variants are shown than the library holds.

B1: glmS ribozyme (parent)
chain: AUAAAAGCGCCAGAACUACAGAAAUGUAGUUGACGAGGAGGAGGUUUAUCGAAUUUUCGGCGGAUGCCUCCAAA

How the values were obtained:
Details in all cases: with glucosamine-6-phosphate
glucosamine-6-phosphate [1] = variants of: B1; assay: self-cleavage kobs at 640 uM GlcN6P; higher = faster cleavage; RNA array
Outline: (§1)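 kcat and KM were obtained from weighted Michaelis–Menten fits across concentrations of kobs values. Those came from one- or two-exponential decay fits to per-tile medians normalised to baseline and to non-cleaving reference variants. The variants were barcoded ribozymes transcribed in situ by E. coli RNA polymerase on sequenced MiSeq chips and tracked through a hybridised Cy3 probe at 37 °C, with 40 μM to 10 mM glucosamine-6-phosphate in HEPES/KCl/Mg(OAc)2 buffer flowed in.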

glucosamine-6-phosphate [2] = variants of: B1; assay: self-cleavage kobs at 2500 uM GlcN6P; higher = faster cleavage; RNA array
Outline: as §1

glucosamine-6-phosphate [3] = variants of: B1; assay: self-cleavage kobs at 10000 uM GlcN6P; higher = faster cleavage; RNA array
Outline: as §1

Variant	self-cleavage kobs at 640 uM GlcN6P (glucosamine-6-phosphate [1])	self-cleavage kobs at 2500 uM GlcN6P (glucosamine-6-phosphate [2])	self-cleavage kobs at 10000 uM GlcN6P (glucosamine-6-phosphate [3])
AUAAAAGCGCUAGAAUUACAGAAAUGUAGUUGACGAGGAGGAGGAUUAUCGAAUUUUCGGCGGAUGCCUCCAAA [C11U C16U U45A]	0.000806 ± 0.00021 s⁻¹	0.00127 ± 0.00037 s⁻¹	
AUAAAAGCGUCAGAACUACAGAAAUGUAGUUGACGAGGAGGAGGUAUAUCGAAUUCUCGGCGGAUGCCUCCAAA [C10U U46A U56C]	< 1e-05 s⁻¹	< 1e-05 s⁻¹	
AUAAAAGCGCCAGAACUACAGAAAUGUAGUUGACGAGGAGGAGGUUUAUCGAAUUUUGGGCGGAUGCUUCGAAA [C58G C68U C71G]	5.51e-05 ± 2.4e-05 s⁻¹		
AUAAAAGGGCCAGAACUACAGAAAUGUAGAUGACGAGGAGGAUGUUUAUCGAAUUUUCGGCGGAUGCCUCCAAA [C8G U30A G43U]	< 1e-05 s⁻¹		
AUAAAAGCGCAAGAAGUACAGAAAUGUAGUUGACGAGGAGGAGGUUUAUCGAAUUUAGGGCGGUUGCCUCCAAA [C11A C16G U57A C58G A64U]	< 1e-05 s⁻¹	< 1e-05 s⁻¹	
AUAAAAGCGCCAGAAUUACAGAAAUGUAGUUGACGAGGAGGAGGUUAAUCGAAUUUUCGGCUGAUGCCUCCAAA [C16U U47A G62U]	< 1e-05 s⁻¹		
AUAAAAGGGCCAGAACUACAGAAAUGUAGUUGACGAGGAGGUGGUUUAUCGAAUUUUCGGCGGAUGCCUCCAAA [C8G A42U]	< 1e-05 s⁻¹		< 1e-05 s⁻¹
AUAAAAGCGUCAGAACUACAGAAAUGUAAUUGAGGAGGAGGAGGUUUAUAGAAUUUUCGGCGAAUCCCUCCAAA [C10U G29A C34G C50A G63A G66C]	< 1e-05 s⁻¹		
AUAAAAGCGCCAGAACUACAGAAAUGUAGUUGAUGAGAAGGGGGUUUAUCGAAUUUUCGGCGGAUGCCUCCAAA [C34U G38A A42G]	< 1e-05 s⁻¹		
AUAAAAGCGCCAGAACUACAGAAAUGUAGUUGACGAGGAGGAGGUUUAUCGAGUUUUCGGCCGAUGCCUCCAAA [A53G G62C]	< 1e-05 s⁻¹	< 1e-05 s⁻¹	
AUAAAAGCAGCAGAACUACAGAAAUGUAGUUGACGAGGAGGAGGUUUAUCGAAUUUUUGGCGGAUGCCUCCAAA [G9A C10G C58U]	< 1e-05 s⁻¹	< 1e-05 s⁻¹	
AUAAAAGCGCCAGACCUACAGAAAUGUAGUUAACGAGGAGGAGGUUUAUCGAAUCUUCUGCGGAUGCCUCCAAA [A15C G32A U55C G59U]	< 1e-05 s⁻¹		
AUAAAAGCGCCAGAACUACAGAAAUGUAGUUGACAAGGAUGAGUCUUAUCGUAUUUUCGGCGGAUGCCUCCAAA [G35A G40U G44U U45C A52U]	< 1e-05 s⁻¹		
AUAAAAGGGCCACAACUACAGAAAUGUAGUUGACGAGGAGGAGGUUUAUCGUUUUUUCGGCGGAUGCCUCUAAA [C8G G13C A52U A53U C71U]	< 1e-05 s⁻¹		< 1e-05 s⁻¹
AUAAAUACGCCAGAACUACAGAAAUGUAGUUGACGAGGAGGAGGUUUAUCGAAUUUUCAGCGGAUGCCUCCAAA [A6U G7A G59A]	< 1e-05 s⁻¹		
AUAAAAGCGCCAGAACUACAGAAAUGUAGUCGACGAGGAGGAGGUUUAUCGAAUUUUCGGCGGAUGGGUCCAAA [U31C C67G C68G]	5.49e-05 ± 1.6e-05 s⁻¹		
AUAAAAGCGCCAGAACUACAGAAAUGUAGUUCACGAGGAGGAGGUUUAUCGACUUUUCGGCCGAUGCCUCCAAA [G32C A53C G62C]	< 1e-05 s⁻¹	< 1e-05 s⁻¹	
AUAAAAGCGCCAGAACUACAGAAAUGUAGUUGACGAGGAGAAGGUUUAUCGAUUUGUCGACGGAUGCCUCCAAA [G41A A53U U56G G60A]	< 1e-05 s⁻¹	< 1e-05 s⁻¹	
AUAAAACCGCCAGAACUACAGAAAUGUAGUUGACGAGGAGGAUGUUUAUCGAAUUUUCGGCGGUUGCCUCCAAA [G7C G43U A64U]	< 1e-05 s⁻¹		
AUAAAAGCAUCAGAACUACAGAAAUGUAGUUGACGAGGAGGGGGUUUAUCGAUUUUUCGGCGGAUGCCUCCAAA [G9A C10U A42G A53U]	< 1e-05 s⁻¹	< 1e-05 s⁻¹	
AUAAAAGCGGCAGAACUACAGAAAUGUAGUUGACGAGGAGGAGGUUUAUCGAAUUUUCGGCGGAUGGUUCCAAA [C10G C67G C68U]	0.0001 ± 4.2e-05 s⁻¹	7.32e-05 ± 3e-05 s⁻¹	2.77e-05 ± 1.3e-05 s⁻¹
AUAAAAGCGCCAGAACUACAGAAAUGUAGUUGACGAGGAGGAGGUUUAUCGAGUAUUCGGCGGAGGCCUCCAAA [A53G U55A U65G]	0.000667 ± 8.4e-05 s⁻¹	0.00174 ± 0.00031 s⁻¹	
AUAAAAGCGCCAGAACUACAGAAAUGUAUUUGACGUGGAGGAGGUUUAUCGAAUUUUCGGCGGAUGCCGCCAAA [G29U A36U U69G]	0.00026 ± 0.00011 s⁻¹	0.000178 ± 7.3e-05 s⁻¹	
AUAAAAGAGCCAGAACUACAGAAAUGUAGUUGACCAGGAGGAGGUUUAUCGAAUUUUCGGCGGAUUCCUCCGAA [C8A G35C G66U A72G]	< 1e-05 s⁻¹		
